The source of these data is publication PMC9837990.

pKd: −log10 of the molar value.

The experiment deals with CH31 IgG monoclonal antibody. In words: SPR.

As for “GT6 tetramer (biotinylated eOD-GT6 on streptavidin) (from UniProt P22629 25-183) (complex)”, the t1/2 stood at 4.9 min.
The same measure, in the same setting: for “GT8 tetramer (biotinylated eOD-GT8 on streptavidin) (from UniProt P22629 25-183) (complex)” the value was 44.4 min.
eOD-GT6-Avi-3C-His (designed binder): the pKd is 5.28 and the koff is over 0.01 s⁻¹.
In the same order, the values of eOD-GT8_AviHis (designed binder) are 6.51 and over 0.01 s⁻¹.
